Source: paper PMC11507940 (bioRxiv, 2024)
Blank lines part the entries; values can stand above or below the binder they belong to.

Columns and labels:
[1] = target: Human recombinant fibroblast activation protein alpha (human) (UniProt Q12884); test: cross-linking + other: mass photometry
[2] = target: Biotinylated dipeptidyl peptidase IV (Homo sapiens, UniProt P27487, biotin); test: BLI
Chain of Biotinylated dipeptidyl peptidase IV (P27487 39-766): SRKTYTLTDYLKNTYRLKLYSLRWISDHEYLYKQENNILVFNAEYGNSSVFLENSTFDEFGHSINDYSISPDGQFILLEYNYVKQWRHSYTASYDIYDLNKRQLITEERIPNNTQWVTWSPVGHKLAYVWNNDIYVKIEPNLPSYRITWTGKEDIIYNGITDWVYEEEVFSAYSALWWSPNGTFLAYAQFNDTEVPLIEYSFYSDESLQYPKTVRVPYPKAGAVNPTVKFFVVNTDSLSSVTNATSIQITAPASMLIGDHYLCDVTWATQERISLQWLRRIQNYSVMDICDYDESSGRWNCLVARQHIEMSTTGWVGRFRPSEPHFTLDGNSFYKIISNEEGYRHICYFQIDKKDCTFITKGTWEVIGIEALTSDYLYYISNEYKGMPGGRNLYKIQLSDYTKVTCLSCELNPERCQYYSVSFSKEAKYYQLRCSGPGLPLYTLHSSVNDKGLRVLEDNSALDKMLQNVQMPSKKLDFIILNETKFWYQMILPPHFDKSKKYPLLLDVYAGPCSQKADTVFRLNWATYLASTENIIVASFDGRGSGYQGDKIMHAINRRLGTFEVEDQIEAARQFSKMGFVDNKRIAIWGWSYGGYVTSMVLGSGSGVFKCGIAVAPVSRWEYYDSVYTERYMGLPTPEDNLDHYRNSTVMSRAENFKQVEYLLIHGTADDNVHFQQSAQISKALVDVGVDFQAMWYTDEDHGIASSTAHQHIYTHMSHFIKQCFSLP

Chain of Human recombinant fibroblast activation protein alpha (human) (Q12884 39-757): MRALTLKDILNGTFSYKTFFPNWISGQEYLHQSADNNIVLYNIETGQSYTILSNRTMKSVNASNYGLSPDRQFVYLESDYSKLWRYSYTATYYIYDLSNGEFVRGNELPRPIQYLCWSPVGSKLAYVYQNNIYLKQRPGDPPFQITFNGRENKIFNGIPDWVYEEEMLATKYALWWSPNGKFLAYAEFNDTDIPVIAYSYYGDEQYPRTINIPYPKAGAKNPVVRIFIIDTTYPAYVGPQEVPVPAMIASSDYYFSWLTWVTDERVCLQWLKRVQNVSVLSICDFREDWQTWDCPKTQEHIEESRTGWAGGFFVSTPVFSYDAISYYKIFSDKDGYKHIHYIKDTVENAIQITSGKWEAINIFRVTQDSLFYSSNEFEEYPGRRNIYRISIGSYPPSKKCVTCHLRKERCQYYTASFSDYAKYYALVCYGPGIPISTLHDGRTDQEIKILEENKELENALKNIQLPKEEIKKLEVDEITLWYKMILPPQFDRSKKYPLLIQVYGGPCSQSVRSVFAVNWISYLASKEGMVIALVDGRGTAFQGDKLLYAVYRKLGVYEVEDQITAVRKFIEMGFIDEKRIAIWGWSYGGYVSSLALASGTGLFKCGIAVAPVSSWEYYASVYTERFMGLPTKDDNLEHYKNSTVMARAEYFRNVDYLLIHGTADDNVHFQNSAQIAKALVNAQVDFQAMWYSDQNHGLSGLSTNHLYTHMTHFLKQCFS

stoichiometry N [1]: 1
B1: SUMO-I3 (single domain antibody I3 fused to an N-terminal 6X His-SUMO-FLAG tag) (VHH)
VHH: EVQLVESGGGLVQPGGSLRLSCAASGFTFSSYAMSWVRQAPGKGLEWVSAINSGGGSTSYADSVKGRFTISRDNAKNTLYLQMNSLKPEDTAVYYCAKARTGWSLAVPSFGSWGQGTQVTVSS

binding result [2]: no binding (tested: 10 μM)
B2: MBP-I3 (single domain antibody I3 with an N-terminal MBP fusion and a C-terminal 6X His-tag) (VHH)
VHH: B1 VHH
